Paper PMC4865122, “Structural Analysis and Insights into the Oligomeric State of an Arginine-Dependent Transcriptional Regulator from Bacillus halodurans” (PLoS ONE, 2016)

Assays:
[1] = biological target: T1, BhArgR (Bacillus halodurans) (UniProt Q9K973); experiment: EMSA; details: 50 mM Tris-HCl pH 7.5, 200 mM NaCl, 10 mM MgCl2, 10 mM CaCl2, 10% glycerol; on ice 40 min; 6% native PAGE in TBE pH 8.8 +/- 10 mM L-arginine, 4 C
T1 sequence: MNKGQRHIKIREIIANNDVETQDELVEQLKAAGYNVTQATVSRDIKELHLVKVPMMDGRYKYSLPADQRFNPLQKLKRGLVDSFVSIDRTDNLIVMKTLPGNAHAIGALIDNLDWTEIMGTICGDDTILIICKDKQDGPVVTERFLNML

BhArgR (ArgR, Bh2777) = biological target: T2, BhArgR (ArgR, Bh2777) (Halalkalibacterium halodurans, UniProt Q9K973); experiment: SEC-MALS (trimer to hexamer shift); EMSA; details: 10 mM L-arginine; SEC-MALS: 20 mM Tris-HCl pH 8.0, 200 mM NaCl, 2 mM MgCl2, 1 mM DTT; EMSA with argG ARG box DNA at 4 C; corepressor; indirect evidence of binding
T2 construct: full length, 149 residues; hexa-histidine tagged in SEC-MALS; trimer (57 kDa) without L-arginine, hexamer (114 kDa) with L-arginine
T2 sequence (Q9K973 1-149): T1 sequence

[2] = biological target: the molecule itself; experiment: SEC-MALS; Superdex-200 10/300 GL, 20 mM Tris-HCl pH 8.0, 200 mM NaCl, 2 mM MgCl2, 1 mM DTT; 3~6 mg/ml injected; with 10 mM L-arginine

Molecule: CCCAGAATACGCTAAGACAACTTTCTTTTTGCTCATGCTAACAATCCCTCCAAAGTGAATATTCATACTCTTGTTATTATTTTTATACATCCACTTGCATAAAAAAAGGCCTGTATAAA (double strand) [119-bp cognate argG promoter DNA]
- binding [1]: binds

Molecule: N=C(N)NCCC[C@H](N)C(=O)O [L-arginine]
- SEC-MALS (trimer to hexamer shift); EMSA (BhArgR (ArgR, Bh2777)): it formed a hexamer in the presence of L-arginine in multi-angle light scattering (MALS) studies

B1: Arginine repressor (ArgR, BH2777) from Bacillus halodurans (natural protein, UniProt Q9K973 1-149, looked up)
chain: T1 sequence
notes: Arginine repressor ArgR (BH2777), Bacillus halodurans, 149 amino acid residues; Met1, Asp2 and Lys3 were in the crystal but disordered, and the model covers residues 4-149; The tag is named for the SEC-MALS sample; Oligomer: trimer without L-arginine, hexamer with 10 mM L-arginine; also called BhArgR; B. halodurans ArgR; source: overexpressed and purified
- stoichiometry N [2]: 6
